Reference: the supplement of paper PMC10126150
± gives the standard deviation of the averaged measurements.

Test system: ATP
Experiment: switch fluorescence ratio, 500 uM ATP over buffer (Cy3 cluster intensity, sum of 5 cycles each) (fold (ratio)); higher = stronger signal-on switching upon ATP binding; sequences stand for … in TCGTCGGCAGCGTCAGATGTGTATAAGAGACAGTTTTTTTTTTTTTTTTTTTTTTTTT…TC
Conditions: aptamer strand: ATP DNA aptamer (quencher-CACCTGGGGGAGTATTGCGGAGGAAGG + anchor), 100 nM annealed; ATP concentration: 500 uM
How it was run: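 The quencher-labelled ATP aptamer, at 100 nM, was annealed to Cy3-labelled switching-strand clusters on a modified Illumina MiSeq flow-cell. The clusters were imaged in selection buffer, then after 15 min with 500 uM ATP at 22 °C, and this buffer/ATP cycle ran five times with NaOH stripping and re-annealing between runs. Per-cluster fluorescence ratios, summed target-cycle over summed buffer-cycle Cy3 intensity, were averaged per switch-domain sequence. Clusters outside 100-1000 RFU were excluded.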
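Also: ATP exposure 15 min at 22 °C before imaging.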

TAGGGGGATG was tested, and the switch fluorescence ratio was 0.997 ± 0.028.

AAGGCTTGGG gave a switch fluorescence ratio of 0.992 ± 0.048.

TAGCGGGCTT gave a switch fluorescence ratio of 0.983 ± 0.025.

Work on ATATGATTGA yielded a switch fluorescence ratio of 0.9686 ± 0.0044.

TCAGGCTAGG gave a switch fluorescence ratio of 1.02 ± 0.028.

With TCACAGTTAG the switch fluorescence ratio was 0.998 ± 0.046.

Sequence AAGATTGAGC has a switch fluorescence ratio of 0.937 ± 0.022.

Work on TCAAAACGGT yielded a switch fluorescence ratio of 1.34 ± 0.51.

CGATAGGGGT showed a switch fluorescence ratio of 1.05 ± 0.074.

In the case of TTCAGGTACT, the switch fluorescence ratio is reported as 1.06 ± 0.019.

ATTGGAGCAG was tested, and the switch fluorescence ratio was 1.055 ± 0.0098.

With AAAATAAAG the switch fluorescence ratio was 0.947 ± 0.077.

Sequence TAGAAGGAAA has a switch fluorescence ratio of 0.9997 ± 0.0017.

For GCGAATATCT, the switch fluorescence ratio was 1.02 ± 0.037.

GTGACTGTGT gave a switch fluorescence ratio of 0.963 ± 0.014.

Work on TAGGGCACA yielded a switch fluorescence ratio of 1.1 ± 0.057.

In the case of TTCAATAGAA, the switch fluorescence ratio is reported as 0.998 ± 0.0029.

Sequence GGCCCTAGTA has a switch fluorescence ratio of 1 ± 0.059.

GAGGGCCTTT showed a switch fluorescence ratio of 0.968 ± 0.048.

With GTTGCTGATT the switch fluorescence ratio was 1.02 ± 0.04.

In the case of AGGTAGCACA, the switch fluorescence ratio is reported as 1.056 ± 0.0036.

CTGTGCGCCA was tested, and the switch fluorescence ratio was 1.122 ± 0.0038.

TGCTAGGGTA was tested, and the switch fluorescence ratio was 0.985 ± 0.012.

For ATGTCTGGGA, the switch fluorescence ratio was 1 ± 0.037.

For GGTGGCAAGG, the switch fluorescence ratio was 0.9912 ± 0.0094.

Work on AGGGGAGTGT yielded a switch fluorescence ratio of 0.988 ± 0.029.

For TGGTTACACG, the switch fluorescence ratio was 1.06 ± 0.046.

Work on AGTACTGACC yielded a switch fluorescence ratio of 1.23 ± 0.037.

In the case of GATCTGCACG, the switch fluorescence ratio is reported as 0.9947 ± 0.0032.

TTGAGTTTGG showed a switch fluorescence ratio of 0.985 ± 0.022.

For TCAACGTAGA, the switch fluorescence ratio was 1.03 ± 0.014.

In the case of TTGGAGTTGT, the switch fluorescence ratio is reported as 1.02 ± 0.098.

Sequence CTGGCTGGTT has a switch fluorescence ratio of 1.01 ± 0.013.

Work on TGGTGGTTCG yielded a switch fluorescence ratio of 0.975 ± 0.061.

With TAGAATGGCT the switch fluorescence ratio was 0.9907 ± 0.0057.

AAGCGGGGAG gave a switch fluorescence ratio of 1.04 ± 0.04.

TTTGGTGGGG gave a switch fluorescence ratio of 1.01 ± 0.029.

AAGGGAGAAC showed a switch fluorescence ratio of 0.986 ± 0.0019.

GGGTTTAGAT gave a switch fluorescence ratio of 0.9854 ± 0.0059.

CGCATAGGAC gave a switch fluorescence ratio of 3.16 ± 0.28.

Work on AGGGGAAAGC yielded a switch fluorescence ratio of 1.01 ± 0.027.

In the case of TACCCAAAAT, the switch fluorescence ratio is reported as 1.1 ± 0.15.

ACAGTCAGAT was tested, and the switch fluorescence ratio was 1.057 ± 0.0067.

Sequence AAGGGGGACA has a switch fluorescence ratio of 0.992 ± 0.032.

With CTGTTGGAAG the switch fluorescence ratio was 0.969 ± 0.012.

Work on AGAGTAGTGT yielded a switch fluorescence ratio of 0.99 ± 0.032.

For TTTATTTGCA, the switch fluorescence ratio was 0.9545 ± 0.0068.

Work on TTACGGGGGT yielded a switch fluorescence ratio of 1.017 ± 0.01.

With GTGTTTTATT the switch fluorescence ratio was 1.01 ± 0.036.

Work on CTGTTGTTG yielded a switch fluorescence ratio of 1 ± 0.01.

Sequence CGCCATAGTG has a switch fluorescence ratio of 1.01 ± 0.039.

Sequence TGATTATTGG has a switch fluorescence ratio of 1 ± 0.061.

Sequence GTGGGTTATT has a switch fluorescence ratio of 0.999 ± 0.016.

Work on TGGGGAGGCT yielded a switch fluorescence ratio of 1.04 ± 0.055.

TTAAGTGCCC gave a switch fluorescence ratio of 1 ± 0.021.

TCAATTTGGC was tested, and the switch fluorescence ratio was 1.02 ± 0.039.

TAGTATGGGG was tested, and the switch fluorescence ratio was 0.976 ± 0.045.

TGGGGCTAGG gave a switch fluorescence ratio of 0.993 ± 0.018.

In the case of TTAAGTACGA, the switch fluorescence ratio is reported as 1.27 ± 0.041.

ATAAGGAGAT was tested, and the switch fluorescence ratio was 0.9759 ± 0.0042.

Work on CGCCATTACG yielded a switch fluorescence ratio of 1.65 ± 0.024.

In the case of CCCGGGAATC, the switch fluorescence ratio is reported as 1.06 ± 0.059.

TCGTTGTTTT showed a switch fluorescence ratio of 1.0216 ± 0.00093.

CATTATATGT gave a switch fluorescence ratio of 1.01 ± 0.046.

With GTGGTCAGGG the switch fluorescence ratio was 0.9855 ± 0.0092.

With TTTTTGGTA the switch fluorescence ratio was 0.985 ± 0.011.

For AATAATGCTT, the switch fluorescence ratio was 0.978 ± 0.014.

GTGTGCTAGT was tested, and the switch fluorescence ratio was 0.975 ± 0.02.

ACGATAGTTA gave a switch fluorescence ratio of 0.992 ± 0.01.

For CAGGGTAGAG, the switch fluorescence ratio was 1 ± 0.043.

With GTCGATTTTT the switch fluorescence ratio was 0.992 ± 0.044.

Work on TCGGTCCTTT yielded a switch fluorescence ratio of 0.99 ± 0.029.

TTGTAATTAG gave a switch fluorescence ratio of 1 ± 0.039.

Work on CAAAAAAAAA yielded a switch fluorescence ratio of 1 ± 0.017.

GCTATGGTTA was tested, and the switch fluorescence ratio was 1 ± 0.013.

TCTGGTGCAT showed a switch fluorescence ratio of 1.17 ± 0.14.

Work on CGTATTTGGG yielded a switch fluorescence ratio of 0.999 ± 0.034.

CGGAAGACGT was tested, and the switch fluorescence ratio was 1.02 ± 0.036.

Sequence ACGCTGGAAG has a switch fluorescence ratio of 0.9892 ± 0.0067.

In the case of CGGTTGCCCG, the switch fluorescence ratio is reported as 0.979 ± 0.12.

Work on ATTAAATGGC yielded a switch fluorescence ratio of 1.02 ± 0.012.

TAAGGGGGCG showed a switch fluorescence ratio of 1 ± 0.023.

With GGATTTAATG the switch fluorescence ratio was 0.9523 ± 0.0057.

In the case of TTTGTTTCAT, the switch fluorescence ratio is reported as 1.04 ± 0.1.

AGCCTGCCCT showed a switch fluorescence ratio of 1.067 ± 0.0053.

In the case of GAATAAATAG, the switch fluorescence ratio is reported as 1 ± 0.024.

AAATGTTGAG showed a switch fluorescence ratio of 0.975 ± 0.045.

In the case of TTGTGGGGGT, the switch fluorescence ratio is reported as 0.998 ± 0.02.

GGAGGTTAAC was tested, and the switch fluorescence ratio was 1.012 ± 0.0091.

Work on AGGTAAACGT yielded a switch fluorescence ratio of 1.05 ± 0.083.

Work on TTTCAAACCC yielded a switch fluorescence ratio of 0.995 ± 0.013.

In the case of GAGGGGAAGA, the switch fluorescence ratio is reported as 0.998 ± 0.031.

Sequence TTGCTATTTT has a switch fluorescence ratio of 1 ± 0.028.

With CGGTTATCGG the switch fluorescence ratio was 1.002 ± 0.0031.

GGTCAATCTA showed a switch fluorescence ratio of 0.946 ± 0.045.

Work on GGCTCTGATG yielded a switch fluorescence ratio of 1.01 ± 0.011.

For TGAGGTGCGG, the switch fluorescence ratio was 0.996 ± 0.024.

GGTTGCGATC gave a switch fluorescence ratio of 1.08 ± 0.03.

With CGATTATAGG the switch fluorescence ratio was 1.003 ± 0.0096.

Sequence ATGTTAAGTC has a switch fluorescence ratio of 0.97 ± 0.049.

AATTTTATGG was tested, and the switch fluorescence ratio was 1.01 ± 0.022.

Work on TAGATCTTAC yielded a switch fluorescence ratio of 1.05 ± 0.046.

AGGATGAAAG was tested, and the switch fluorescence ratio was 0.9896 ± 0.0034.

TAAAATGGGA showed a switch fluorescence ratio of 0.981 ± 0.027.

For TTTTTGCCGC, the switch fluorescence ratio was 1.02 ± 0.012.

In the case of AACGGCTCTC, the switch fluorescence ratio is reported as 0.988 ± 0.043.

With TTTTACCCGG the switch fluorescence ratio was 1.04 ± 0.029.

Sequence GGGAGTAGAC has a switch fluorescence ratio of 1.02 ± 0.045.

Work on TTCGATTTGC yielded a switch fluorescence ratio of 1.01 ± 0.022.

With AGTCATAAAA the switch fluorescence ratio was 1.01 ± 0.045.

Sequence TTTAGATTGA has a switch fluorescence ratio of 0.99606 ± 0.00096.

CATTGGTGAG showed a switch fluorescence ratio of 0.992 ± 0.032.

With GGCGAAGTCG the switch fluorescence ratio was 0.999 ± 0.023.

TCAGGTGGGT gave a switch fluorescence ratio of 1.22 ± 0.22.

Work on TTAGGAATTT yielded a switch fluorescence ratio of 1.05 ± 0.075.

Sequence CGCATTTTGT has a switch fluorescence ratio of 1.06 ± 0.0043.

TACGACGGGC gave a switch fluorescence ratio of 1.57 ± 0.5.

In the case of TTTATACCTT, the switch fluorescence ratio is reported as 1.07 ± 0.1.

TGGGGCGAAA was tested, and the switch fluorescence ratio was 0.997 ± 0.089.

Work on GAGTAATGGG yielded a switch fluorescence ratio of 1.003 ± 0.0098.

Sequence ATTTTTTTT has a switch fluorescence ratio of 0.996 ± 0.024.

TGTTTTAATG gave a switch fluorescence ratio of 0.988 ± 0.011.

Sequence GGTTGGGCGG has a switch fluorescence ratio of 1.01 ± 0.026.

In the case of TGGTCTTTTA, the switch fluorescence ratio is reported as 0.9852 ± 0.0022.

TATGGGTGAT showed a switch fluorescence ratio of 1.01 ± 0.034.

AGGGGGCAGA gave a switch fluorescence ratio of 1.03 ± 0.05.

GGGTGACATT gave a switch fluorescence ratio of 0.997 ± 0.094.

TAGACTGGGG gave a switch fluorescence ratio of 0.966 ± 0.11.

With CGAGTTTTTA the switch fluorescence ratio was 0.994 ± 0.027.

For GCTTTTGGCC, the switch fluorescence ratio was 0.971 ± 0.02.

For GGGTATCTGT, the switch fluorescence ratio was 1.01 ± 0.032.

In the case of TTGACGAGTT, the switch fluorescence ratio is reported as 1.06 ± 0.081.

In the case of TTGCAAGTCA, the switch fluorescence ratio is reported as 1.05 ± 0.018.

TTTGGACAAG was tested, and the switch fluorescence ratio was 1 ± 0.061.

Work on GGGGTACCCA yielded a switch fluorescence ratio of 0.993 ± 0.018.

ATTGGTCAAG was tested, and the switch fluorescence ratio was 0.985 ± 0.039.

Sequence GCGGGAGGTC has a switch fluorescence ratio of 1.03 ± 0.013.

TTTCCAGCGT gave a switch fluorescence ratio of 1.03 ± 0.036.

With GGGTTATTTT the switch fluorescence ratio was 0.999 ± 0.043.

In the case of AGAACATAGA, the switch fluorescence ratio is reported as 0.986 ± 0.0025.

AACCAGTGCG was tested, and the switch fluorescence ratio was 1.08 ± 0.032.

In the case of TTGGGAGGGC, the switch fluorescence ratio is reported as 1.18 ± 0.27.

TGAGATAGCT was tested, and the switch fluorescence ratio was 0.998 ± 0.033.

Sequence GGTAAAAGCT has a switch fluorescence ratio of 1.03 ± 0.057.

GCCTACATTA was tested, and the switch fluorescence ratio was 0.997 ± 0.022.

For GCACATTGCT, the switch fluorescence ratio was 1.02 ± 0.013.

Work on GGGGATGCTC yielded a switch fluorescence ratio of 1.03 ± 0.018.

AGGTTTATTT was tested, and the switch fluorescence ratio was 1.02 ± 0.018.

GTTTTGGGAG showed a switch fluorescence ratio of 1.02 ± 0.033.

In the case of TGACTTTGAT, the switch fluorescence ratio is reported as 0.95 ± 0.013.

In the case of GGCTTTTGGA, the switch fluorescence ratio is reported as 0.982 ± 0.014.

With GAGACCCTAT the switch fluorescence ratio was 1.029 ± 0.0074.

ATATGGTCTA was tested, and the switch fluorescence ratio was 0.999 ± 0.053.

In the case of TTAACTGCTT, the switch fluorescence ratio is reported as 0.9894 ± 0.0088.

For GTTTGTGTTC, the switch fluorescence ratio was 0.988 ± 0.015.

In the case of TAAATTTATT, the switch fluorescence ratio is reported as 1.01 ± 0.017.

In the case of TTTTAGTATG, the switch fluorescence ratio is reported as 1 ± 0.02.
